Positions count from the first letter of the chain named.
Experiments:
Assay in all cases: ITC; peptide in the syringe, Fab (~10 uM) in the cell; DPBS, 25 °C; single-site binding model; triplicate, mean ± SD; No. of sites = peptide per Fab
Settings in all cases: both partners purified
[1] = target: T1, Ac-[residues removed]-NH2 (NPNA4 peptide) (Plasmodium falciparum (synthetic CSP …))
T1 construct: also called 16-mer peptide; source: synthetic peptide; bought: Innopep Inc

[2] = target: T2, Ac-[residues removed]-NH2 (NPNA2 peptide) (Plasmodium falciparum (synthetic CSP …))
T2 construct: also called 8-mer peptide; source: synthetic peptide; bought: Innopep Inc

[3] = target: T3, Ac-[residues removed]-NH2 (NPNA6 peptide) (Plasmodium falciparum (synthetic CSP …))
T3 construct: also called 24-mer peptide; source: synthetic peptide; bought: Innopep Inc

B1: Fab239 (Fab, V domains shown)
VH: QVQLVESGGGVVQPGRSLRLSCAASRLTFRNFGMHWVRQTPGKGLEWVAVIWHDGSNKFYADSVEGRFTISRDNSKNTLYLQMNSLRDEDTAIYYCAKDWGGASDRVFDYWGRGTLVIVSS
VL: DIQMTQSPSTLSASVGDRVTITCRASQSVSTSLAWYQQKPGKAPNLLIYQASTLYRGVPSRFSGSGSGTEFTLTIGSLQPDDFATYYCQHYNSYSRITFGQGTRLEIK
notes: also called mAb239; source: ExpiCHO cells, purified (HiTrap Protein G, SEC)
Which results are given for B1?
stoichiometry N [1]: 0.572; stoichiometry N [2]: 1.34; stoichiometry N [3]: 0.348

B2: Fab364 (Fab, V domains shown)
VH: QVQLVESGGGVVQPGGSLRLSCAASGFTFSGYGMHWVRQVPGKGLEWVAIIWFDGSQKYYADSVQGRFTISRDNSKKTLFLRMNSLRAEDTAVYYCAKVHDDEPTQDYWGQGTLVTVSS
VL: DIQMTQSPSTLSASVGDRVTITCRASQGISTSLAWYQQKPGKAPKLLIYKASSLESGVPSRFSGSGSGTEFTLTITSLQPEDFATYYCQQYKRYWTFGQGTKVEIK
notes: also called mAb364; source: ExpiCHO cells, purified (HiTrap Protein G, SEC)
How did the “stoichiometry N” value [1] turn out when B2 was run?
Its value is 0.634.

And the “stoichiometry N” value [2]?
The value was 1.41.

What about the “stoichiometry N” value [3] of the same binder?
The value was 0.445.

B3: Fab395 (Fab, V domains shown)
VH: QEQLVESGGGVVQPGRSLRLSCAAASEFCFSCYGMHWVRQAPGKGLEWVAVIWHDGSNQHFADSVKGRFTISRDNSKNIMYLQMNSLRAEDTAVYYCASATRYDILTGAFDYWGQGTLVTVSS
VL: B2 VL with G28S, S32W, T76S, E81D, K92S
notes: also called mAb395; source: ExpiCHO cells, purified (HiTrap Protein G, SEC)
B3 was tested. Which “stoichiometry N” value [1] did it give?
The value was 0.608.

What about the “stoichiometry N” value [2] of the same binder?
The value was 1.35.

What about the “stoichiometry N” value [3] of the same binder?
The value was 0.432.

B4: Fab366 (Fab, V domains shown)
VH: QVQLVQSGAEVKKPGASARVSCKASGYTLTDFYLHWVRQAPGQGLEWMGWLNPHSGGTNYAQKFLGRVSMTRDTSISTAYMELNKLISDDTAVYFCVRSDQEALRGAFDIWGQGTMVFVSS
VL: DIQMTQSPSSLSASVGDTVTITCRASQSINDYLNWYQQKPGKAPKLLIYATSSLHSGVPSRFSGSGFGTDFTLTISSLQPEDSATYLCQQSHSLWTFGQGTKVEVK
notes: also called mAb366; source: ExpiCHO cells, purified (HiTrap Protein G, SEC)
Which results are given for B4?
stoichiometry N [1]: 1.21; stoichiometry N [2]: 1.21; stoichiometry N [3]: 0.67

B5: Fab397 (Fab, V domains shown)
VH: EVQLVKSGGGLVKPGGSLRLSCAVSGFTFTDAWMSWVRQAPGKGPEWVGRIKSNPDGGTTDYAAPVRGRFTISRDDSKNTLYLQMNNLKTEDTAVYYCITDRDFYRSGGSWGQGTLVTV
VL: DIVMTQSPLSLPVTPGEPASISCRSRQSLLYSNGDNYLDWYLQKPGQSPQLLIYLGSNRAPGVPDRFSGSGSGTDFTLKISRVEAEDVGVYYCMQTLQTPHTFGQGTKLEIK
notes: also called mAb397; source: ExpiCHO cells, purified (HiTrap Protein G, SEC)
Which results are given for B5?
stoichiometry N [1]: 1.3; stoichiometry N [2]: 1.18; stoichiometry N [3]: 0.73

B6: Fab399 (Fab, V domains shown)
VH: EVQLVESGGGLVQPGRSLRLSCTTSGFTFGDYAMSWFRQAPGKGLEWVGFIRSKGFGGTAEYAAFVKGRFTISRDDSRSIAYLQMTSLKPEDTAVYYCSRVGVVIATAVYWGQGTLVTVSS
VL: DILMTQTPLSLSVTPGQPASISCKSSQSLLDNDGKTYLYWYLQKPGQSPQLLIYEVSNRFSGVPERFSGSGSGTDFTLKIRRVEAEDVGVYYCMQRIDLPWTFGQGTKVEIK
notes: also called mAb399; source: ExpiCHO cells, purified (HiTrap Protein G, SEC)
What does the source list for B6?
stoichiometry N [1]: 1.74; stoichiometry N [2]: 3.23; stoichiometry N [3]: 0.737

B7: Fab224 (Fab, V domains shown)
VH: EVQLVESGGGLVQPGRSLRLPCTASGFSFGDHAMSWVRQAPGKGLEWVGFIRKTTYGATTHYAAAVRGRFTISRDDSKSIVYLQMNSLKTEDTAVYFCTRVQLDYGPGYQYYGMDVWGQGTTVTVSS
VL: ESVLTQPPSVSGAPGQRVTISCTGMNSNIGAGYDVYWYQQLPGRAPKLLIYGNSNRPSGVPDRFSGSRSGTSASLAITGLQAEDEADYYCQSYDTSLNGWAFGGGTKLTVL
notes: also called mAb224; source: ExpiCHO cells, purified (HiTrap Protein G, SEC)
How did the “stoichiometry N” value [1] turn out when B7 was run?
Its value is 1.26.

What about the “stoichiometry N” value [2] of the same binder?
The value was 1.59.

And the “stoichiometry N” value [3]?
Its value is 0.749.

B8: Fab317 (Fab, V domains shown)
VH: QMQLVESGGGVVQPGRSLRLSCTASGFTFSTYAMHWVRQSPGQGLQWVAVISYHSTNKYYEDSVRGRFTISRDNSKNTLYLQMNSLRAEDTAVYYCARDGYSSSFFDFWGQGTLVTVSS
VL: DIQMTQSPSTLSASVGDRVAITCRASQSISRWLAWYQQQPGKAPKLLMSGASVLESGVPSRFSGSGSGTEFTLTISSLQPDDFATYYCQHYNSYFVTFGQGTKVEIK
notes: also called mAb317; source: ExpiCHO cells, purified (HiTrap Protein G, SEC)
B8 was tested. Which “stoichiometry N” value [1] did it give?
Its value is 0.95.

What about the “stoichiometry N” value [2] of the same binder?
Its value is 1.36.

And the “stoichiometry N” value [3]?
The value was 0.723.
